Changes are numbered by the printed parent chain.
B1: anti-CfaE mouse mAb P8D10 (antibody, V domains shown)
VH: QIQLVQSGPELKKPGETVKISCKASGYTFTNYGMNWVKQAPGKGLKWMGWINTYTGQSTYADDFKGRFAFSLETSASTAHLQISNLKNEDAATYFCARMEYGNYENALDYWGQGTSVTVSS
VL: DIVMTQSHKFMSTSIGDRVSITCKASQDVSTAVVWYQQKPGHSPKLLIYSASYRYTGVPDRFTGSGSGTDFTFTISSVQAEDLAVYYCLQHFSTPRTFGGGTNLEIK
notes: also called full length P8D10 mAb
B2: anti-CsbD mouse mAb P7C2 (antibody, V domains shown)
VH: EVKLEESGGGLVQPGGSMKLSCAASGFTFSDAWMDWVRQSPEKGLEWVGKIRSEINDHATYYAESVKGRFTISRDDSKSGVYLQMNNLRAEDTGIYYCARDGYYGAMDYWGQGTSVTVSS
VL: DVQITQSPSYLAASPGETITINCRSNKSISRYLAWYQEKPGKTNKLLIYSGSTLQSGIPSRFSGSGSNTDFTLTISSLEPEDFAMYYCQQHNEYPYTFGSGTKLEIK
B3: anti-CsbD mouse mAb P9A5 (antibody, V domains shown)
VH: EVQLQQFGAEVVKPGASVKISCKASGYTFTDYNIDWVKQSHGESLEWIGDISPNSEGTTYNQKFKGQATLTIDKSSTTAYMELRSLTSEDSAVYYCARGSGIWNGLDYWGQGTSVTVSS
VL: DIVMTQSHKFMSTSVGDRVSITCKASQDVSTAVAWYQQKPGQSPQLLIYSSSYRYVGVPDRFTGSGSGTDFTFTISSVQAEDLAVYYCHQHYSLPYTFGGGTKLEIK
notes: Isotype n.d
B4: anti-CfaE mouse mAb P5C7 (antibody, V domains shown)
VH: B1 VH with Q57E, S58P, A61T, H80Y, S84N, N85S, N88T, A91T, L108M, Y110S
VL: B1 VL with I2T, I15V, H42Q, S93N, T94I, N103K
B5: anti-CotD mouse mAb P6B8 (antibody, V domains shown)
VH: QVTLKESGPGILQPSQTLSLTCSFSGFSLSTSGMGVGWIRQPSGKGLEWLSHIWWDDEKRYNPALKSRLTISKDTSSNQVFLKIASVDTADTATYYCARIGDRSGHAGFVYWGQGTLVTVSA
VL: DIKMTQSPSSMYASLGERVTITCKASQDINSYLSWFQQKPGKSPKTLIYRANRLVDGVPSRFSGSGSGQDYSLTISSLEYEDMGTYYCLQYDEFPYTFGGGTKLEIK

Biological target: T1, CfaE, tip adhesin of CFA/I fimbriae on wild type ETEC strain H10407 (Escherichia coli (ETEC) strain H10407, UniProt P25734 23-360)
T1 sequence: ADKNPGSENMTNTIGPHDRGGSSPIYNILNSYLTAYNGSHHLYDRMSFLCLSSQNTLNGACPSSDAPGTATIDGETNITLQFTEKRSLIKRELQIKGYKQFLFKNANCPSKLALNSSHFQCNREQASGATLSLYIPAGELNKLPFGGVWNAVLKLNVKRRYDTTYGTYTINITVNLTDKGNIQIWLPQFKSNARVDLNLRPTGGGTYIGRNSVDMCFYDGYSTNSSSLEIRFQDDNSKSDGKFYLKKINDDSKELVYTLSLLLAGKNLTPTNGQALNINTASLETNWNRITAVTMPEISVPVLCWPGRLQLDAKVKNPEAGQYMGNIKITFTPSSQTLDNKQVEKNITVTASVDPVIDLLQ
Assay: cell-based or functional assay

| Binder | fold reduction of ETEC H10407 binding to Caco-2 cells |
| --- | --- |
| B1 | > 4 fold |

Biological target: T1, CfaE, tip adhesin of CFA/I fimbriae on …
Assay: cell-based or functional assay
Remark: another data set of the same source

| Binder | MIC in HAI |
| --- | --- |
| B2 | > 250 µg/mL |
| B3 | > 250 µg/mL |
| B1 | 1.2 µg/mL |
| B4 | 1.2 µg/mL |
| B5 | > 250 µg/mL |

Biological target: CsfD, tip adhesin of CS4 fimbriae on wild type ETEC strain BANG10-SP (Escherichia coli (ETEC) strain BANG10-SP)
Assay: cell-based or functional assay

| Binder | MIC in HAI |
| --- | --- |
| B2 | > 250 µg/mL |
| B3 | > 250 µg/mL |
| B1 | > 250 µg/mL |
| B4 | > 250 µg/mL |
| B5 | > 250 µg/mL |

Biological target: CsuD, tip adhesin of CS14 fimbriae on wild type ETEC strain WS3294A (Escherichia coli (ETEC) strain WS3294A)
Assay: cell-based or functional assay

| Binder | MIC in HAI |
| --- | --- |
| B2 | > 250 µg/mL |
| B3 | > 250 µg/mL |
| B1 | > 250 µg/mL |
| B4 | > 250 µg/mL |
| B5 | > 250 µg/mL |

Biological target: T2, CsbD, tip adhesin of CS17 fimbriae on wild type ETEC strain WS6788A (Escherichia coli (ETEC) strain WS6788A)
T2 chain: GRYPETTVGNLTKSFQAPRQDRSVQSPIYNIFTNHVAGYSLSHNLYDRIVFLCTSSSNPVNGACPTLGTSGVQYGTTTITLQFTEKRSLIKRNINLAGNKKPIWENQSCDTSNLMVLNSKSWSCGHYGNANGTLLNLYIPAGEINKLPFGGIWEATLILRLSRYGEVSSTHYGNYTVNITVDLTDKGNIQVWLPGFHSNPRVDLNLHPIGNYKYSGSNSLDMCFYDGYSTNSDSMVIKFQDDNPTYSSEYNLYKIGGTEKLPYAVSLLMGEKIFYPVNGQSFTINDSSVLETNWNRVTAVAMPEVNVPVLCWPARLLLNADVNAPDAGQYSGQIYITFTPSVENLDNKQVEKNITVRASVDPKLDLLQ
Assay: cell-based or functional assay

| Binder | MIC in HAI |
| --- | --- |
| B2 | 1 µg/mL |
| B3 | 4 µg/mL |
| B1 | > 250 µg/mL |
| B4 | 16 µg/mL |
| B5 | > 250 µg/mL |

Biological target: T3, CsbD L85I/H144A, tip adhesin of CS17 fimbriae on wild type ETEC strain LSN02-013966/A (Escherichia coli (ETEC) strain …)
T3 chain: T2 chain with L67I, H126A
Assay: cell-based or functional assay

| Binder | MIC in HAI |
| --- | --- |
| B2 | 1 µg/mL |
| B3 | 3.9 µg/mL |
| B1 | > 250 µg/mL |
| B4 | > 250 µg/mL |
| B5 | > 250 µg/mL |

Biological target: T4, CsbD L85I, tip adhesin of CS17 fimbriae on wild type ETEC strain WS4240A (Escherichia coli (ETEC) strain WS4240A)
T4 chain: T2 chain with L67I
Assay: cell-based or functional assay

| Binder | MIC in HAI |
| --- | --- |
| B2 | 2 µg/mL |
| B4 | > 250 µg/mL |

Biological target: CooD, tip adhesin of CS1 fimbriae on wild type ETEC strain WS1974A (Escherichia coli (ETEC) strain WS1974A)
Assay: cell-based or functional assay

| Binder | MIC in HAI |
| --- | --- |
| B2 | 4 µg/mL |
| B3 | 4 µg/mL |
| B1 | > 250 µg/mL |
| B4 | > 250 µg/mL |
| B5 | > 250 µg/mL |

Biological target: T5, CotD, tip adhesin of CS2 fimbriae on wild type ETEC strain C91f (Escherichia coli (ETEC) strain C91f)
T5 chain: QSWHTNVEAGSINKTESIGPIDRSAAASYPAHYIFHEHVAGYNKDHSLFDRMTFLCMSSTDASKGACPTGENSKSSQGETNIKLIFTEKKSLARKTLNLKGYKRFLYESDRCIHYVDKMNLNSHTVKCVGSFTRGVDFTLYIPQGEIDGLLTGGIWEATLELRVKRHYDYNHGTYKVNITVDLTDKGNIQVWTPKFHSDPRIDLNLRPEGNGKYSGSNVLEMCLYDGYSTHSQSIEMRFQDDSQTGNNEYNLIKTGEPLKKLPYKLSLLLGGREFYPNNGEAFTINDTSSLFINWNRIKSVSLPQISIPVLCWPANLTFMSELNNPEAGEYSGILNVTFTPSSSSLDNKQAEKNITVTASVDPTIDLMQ
Assay: cell-based or functional assay

| Binder | MIC in HAI |
| --- | --- |
| B2 | > 250 µg/mL |
| B3 | > 250 µg/mL |
| B1 | > 250 µg/mL |
| B4 | > 250 µg/mL |
| B5 | 3 µg/mL |

Biological target: T6, dsc19CfaE6xhis (H10407), donor strand complemented recombinant CFA/I fimbrial tip adhesin CfaE (Escherichia coli (ETEC) strain H10407, UniProt P25734 23-360)
T6 construct: also called dscCfaE; primary CfaE
T6 sequence: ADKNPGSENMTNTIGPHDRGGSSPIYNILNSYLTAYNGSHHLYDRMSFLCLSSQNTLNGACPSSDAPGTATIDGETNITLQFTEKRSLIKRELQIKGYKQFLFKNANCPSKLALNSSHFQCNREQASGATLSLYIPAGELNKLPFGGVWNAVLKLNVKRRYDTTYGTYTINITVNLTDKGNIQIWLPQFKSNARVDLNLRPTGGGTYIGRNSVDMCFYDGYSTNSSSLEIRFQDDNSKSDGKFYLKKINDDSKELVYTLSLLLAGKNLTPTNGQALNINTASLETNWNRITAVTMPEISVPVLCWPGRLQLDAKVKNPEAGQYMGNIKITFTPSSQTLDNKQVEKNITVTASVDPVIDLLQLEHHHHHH
Assay: ELISA on coated adhesin

| Binder | binding result |
| --- | --- |
| B2 | no binding (tested: mAb 2 ug/ml) |
| B3 | no binding (tested: mAb 2 ug/ml) |
| B5 | no binding (tested: mAb 2 ug/ml) |

Biological target: T7, dsc19CsbD6xhis (WS6788A), donor strand complemented recombinant CS17 fimbrial tip adhesin CsbD (Escherichia coli (ETEC) strain WS6788A)
T7 construct: also called dscCsbD; primary CsbD
T7 chain: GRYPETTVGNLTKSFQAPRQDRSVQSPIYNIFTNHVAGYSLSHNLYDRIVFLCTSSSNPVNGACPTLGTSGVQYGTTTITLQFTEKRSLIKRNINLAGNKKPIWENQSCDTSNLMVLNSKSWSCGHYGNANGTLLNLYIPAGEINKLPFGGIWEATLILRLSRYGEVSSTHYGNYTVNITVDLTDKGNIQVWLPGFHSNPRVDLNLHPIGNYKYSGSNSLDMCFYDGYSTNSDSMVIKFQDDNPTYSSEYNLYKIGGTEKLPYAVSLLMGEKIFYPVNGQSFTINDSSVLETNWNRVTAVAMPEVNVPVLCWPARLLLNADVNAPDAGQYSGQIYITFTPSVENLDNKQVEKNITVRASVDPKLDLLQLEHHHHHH
Assay: ELISA on coated adhesin

| Binder | binding result |
| --- | --- |
| B1 | no binding (tested: mAb 2 ug/ml) |
| B5 | no binding (tested: mAb 2 ug/ml) |

Biological target: T8, dsc19CotD6xhis (C91f), donor strand complemented recombinant CS2 fimbrial tip adhesin CotD (Escherichia coli (ETEC) strain C91f)
T8 construct: also called dscCotD; CS2 adhesin
T8 chain: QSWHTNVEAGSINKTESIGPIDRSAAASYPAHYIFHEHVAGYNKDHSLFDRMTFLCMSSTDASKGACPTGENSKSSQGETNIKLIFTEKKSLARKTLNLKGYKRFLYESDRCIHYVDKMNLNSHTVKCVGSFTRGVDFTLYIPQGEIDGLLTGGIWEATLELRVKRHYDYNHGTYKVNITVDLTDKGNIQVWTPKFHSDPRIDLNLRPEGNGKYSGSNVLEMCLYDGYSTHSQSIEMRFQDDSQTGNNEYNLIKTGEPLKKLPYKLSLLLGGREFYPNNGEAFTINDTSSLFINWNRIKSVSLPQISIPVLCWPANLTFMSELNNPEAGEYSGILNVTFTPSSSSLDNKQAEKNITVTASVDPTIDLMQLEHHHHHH
Assay: ELISA on coated adhesin

| Binder | binding result |
| --- | --- |
| B2 | no binding (tested: mAb 2 ug/ml) |
| B3 | no binding (tested: mAb 2 ug/ml) |
| B1 | no binding (tested: mAb 2 ug/ml) |
| B4 | no binding (tested: mAb 2 ug/ml) |

From patent US20230192824A1 (UNITED STATES OF AMERICA AS REPRESENTED BY THE SECRETARY OF …, published 2023)
